As usually defined, the Kd is a measure of binding affinity in units of concentration. Low values mean a tighter complex, high ones a looser complex.

For assay [1], the target named is T1, membrane-bound human CD73 (human, UniProt P21589 27-549).
T1 sequence: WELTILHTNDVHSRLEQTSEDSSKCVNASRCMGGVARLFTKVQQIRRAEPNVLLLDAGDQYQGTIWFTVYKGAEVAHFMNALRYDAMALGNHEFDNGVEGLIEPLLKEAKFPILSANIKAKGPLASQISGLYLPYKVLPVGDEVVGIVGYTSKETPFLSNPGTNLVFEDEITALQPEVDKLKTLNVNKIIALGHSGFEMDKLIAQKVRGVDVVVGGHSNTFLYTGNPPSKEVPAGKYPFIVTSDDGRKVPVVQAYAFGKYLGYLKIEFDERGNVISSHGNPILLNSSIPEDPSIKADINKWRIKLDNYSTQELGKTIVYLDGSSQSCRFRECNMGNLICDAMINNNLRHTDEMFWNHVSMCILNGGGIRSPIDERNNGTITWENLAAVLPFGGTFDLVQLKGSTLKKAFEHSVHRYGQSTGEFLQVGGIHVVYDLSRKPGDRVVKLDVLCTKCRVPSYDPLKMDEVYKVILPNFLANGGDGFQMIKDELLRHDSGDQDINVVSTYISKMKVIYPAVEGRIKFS
As to the kind of experiment: cell-based or functional assay.

In the next assay the target is T2, hIL-2Rβ (human, UniProt P14784 27-239).
T2 construct: also called hIL-2RB
T2 sequence (looked up): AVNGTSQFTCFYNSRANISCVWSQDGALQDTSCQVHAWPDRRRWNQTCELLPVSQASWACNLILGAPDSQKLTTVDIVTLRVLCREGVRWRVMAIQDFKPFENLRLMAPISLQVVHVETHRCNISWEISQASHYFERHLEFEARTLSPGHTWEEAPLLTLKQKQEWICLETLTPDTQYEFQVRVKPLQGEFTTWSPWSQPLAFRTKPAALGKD
As to the kind of experiment: SPR, Biacore T200; biotinylated CD73 on SA chip, binder bound to CD73, hIL-2Rβ as analyte. The method, then: (§1) To quantitatively analyze the binding affinities to CD73 and IL-2 receptors of […] and GI-108B1, in which the anti-CD73 antibody that specifically binds to CD73 was linked to the IL-2 variant, and Aldesleukin (trade name: PROLEUKIN®, Novartis), the binding affinities were measured using SPR (surface plasmon resonance). Using a BIACORE™ T200 instrument (Cytiva), the binding affinities of GI-108A1 (AHF10240), GI-108A1 (AHP04167) and GI-108B1 to hCD73, cyCD73, mCD73, hIL-2Rα, hIL-2Rβ, and hIL-2Rβγ were analyzed. Oleclumab (Astrazeneca), produced on order from Ybiologics, Inc., was used as a control.
To analyze the binding affinity to hIL-2Ra, hIL-2Ra was […] immobilized on Sensor Chip CM5 using a His capture kit (Cytiva, USA). Each of GI-108A1 (AHF10240), GI-108A1 (AHP04167), GI-108B1 and PROLEUKIN®, diluted in HBS-EP+ buffer, was then applied for 1 minute, followed by analysis of association and dissociation. In addition, the binding affinities to hIL-2RB and hIL-2Rβγ were measured by a three-step analysis method including treating Sensor Chip SA (Cytiva, USA) with biotinylated CD73, and then binding each of GI-108A1 (AHF10240), GI-108A1 (AHP04167), GI-108B1 and PROLEUKIN® to CD73, followed by treatment with each of hIL-2RB and hIL-2Rβγ diluted in HBS-P+ buffer (Cytiva, USA). For hIL-2RB, association was performed for 1 minute and dissociation for 1 minute, and for hIL-2Rβγ, association was performed for 5 minutes and dissociation for 2 hours at each concentration, in a single cycle kinetics analysis. Each sensorgram was normalized and subtracted compared to a blank cell to calculate affinity.

Another assay concerns the target T3, cyCD73.
T3 construct: Species told only by the prefix 'cy'
As to the kind of experiment: SPR, Biacore T200; binder captured on CM5 chip by human antibody capture kit, CD73 as analyte. The method, then: as §1
(§2) Specifically, to analyze the binding affinities to hCD73, cyCD73, and mCD73, each of GI-108A1 (AHF10240), GI-108A1 (AHP04167), GI-108B1, and Oleclumab was diluted in HBS-EP+ buffer (Cytiva, USA) and reversibly immobilized on Sensor Chip CM5 (Cytiva, USA) using a human antibody capture kit (Cytiva, USA). CD73 was diluted in HBS-EP+ buffer and then analyzed for association and dissociation at a flow rate of 30 μL/min for 5 minutes each.

The next assay concerns the target T4, hCD73 (human, UniProt P21589 27-549, limits assumed).
T4 construct: also called human CD73; recombinant human CD73 protein
T4 sequence: T1 sequence
The assay is described as above. Here is the method: as §1, §2

Another assay has as its target T5, mCD73 (UniProt Q61503 29-551, limits assumed).
T5 construct: Species told only by the prefix 'm'
T5 sequence (looked up): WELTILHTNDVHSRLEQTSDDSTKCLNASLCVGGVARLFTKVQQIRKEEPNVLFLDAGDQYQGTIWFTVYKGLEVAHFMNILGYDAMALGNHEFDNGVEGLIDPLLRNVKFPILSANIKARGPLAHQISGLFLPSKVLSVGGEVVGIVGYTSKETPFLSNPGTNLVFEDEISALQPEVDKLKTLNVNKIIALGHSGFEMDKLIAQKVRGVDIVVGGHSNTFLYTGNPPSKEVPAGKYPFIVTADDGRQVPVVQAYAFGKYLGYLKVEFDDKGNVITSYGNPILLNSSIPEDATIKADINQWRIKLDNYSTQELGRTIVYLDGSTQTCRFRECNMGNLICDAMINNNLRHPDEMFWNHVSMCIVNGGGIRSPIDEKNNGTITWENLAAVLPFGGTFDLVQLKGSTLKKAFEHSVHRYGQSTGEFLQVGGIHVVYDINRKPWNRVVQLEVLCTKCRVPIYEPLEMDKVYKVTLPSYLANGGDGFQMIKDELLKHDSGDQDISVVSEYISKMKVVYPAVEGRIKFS
The description is as above. The method, then: as §1, §2

B1: GI-108A1 (AHF10240) (Anti-CD73 sdAb-hIgG4 Fc-hIL2v3 fusion protein dimer) (Fc fusion)
chain: EVQLVESGGGVVQTGGSLRLSCAASGRTFTHLAMGWFRQAPGKEREFVAAISNSGAGTQFADSVKGRFTISRDNAKNTVYLQMNSLKPEDTAVYYCAADWGTRDSPSKLNAVYDYWGRGTQVTVSSGGGGSAESKYGPPCPPCPAPEAAGGPSVFLFPPKPKDQLMISRTPEVTCVVVDVSQEDPEVQFNWYVDGVEVHNAKTKPREEQFNSTYRVVSVLTVLHQDWLNGKEYKCKVSNKGLPSSIEKTISKAKGQPREPQVYTLPPSQEEMTKNQVSLTCLVKGFYPSDIAVEWESNGQPENNYKTTPPVLDSDGSFFLYSRLTVDKSRWQEGNVFSCSVLHEALHNHYTQKSLSLSLGGGGGSGGGGSGGGGSAPTSSSTKKTQLQLEHLLLDLQMILNGINNYKNPKLTAMLTAKFYMPKKATELKHLQCLERELKPLEEVLNLAQSKNFHLRPRDLISNINVIVLELKGSETTFMCEYADETATIVEFLNRWITFCQSIISTLT
notes: Homodimer through hinge cysteines
In the case of B1, in assay [1], the “IC50, inhibition of membrane-bound CD73 enzyme activity on MDA-MB-231 cells (adenosine assay)” value turned out to be 2.75 nM. Moreover, the Kd in the assay with hIL-2Rβ was found to be 2500 nM; in the assay with cyCD73, 0.0841 nM; in the assay with hCD73, 0.0502 nM; with mCD73 it was 2.62 nM.

B2: GI-108B1 (Anti-CD73 Ab-hIgG4 Fc-hIL2v3 fusion protein dimer) (antibody)
heavy: QVQLVQSGAEVKKPGSSVKVSCKFSGGSFTSYSFSWVRQAPGQGLEWMGRIIPVLTTTDYAQKFRDRVTITADESTSTAYMELSGLRSEDTAVYYCASGLKKNWYFDLWGRGALITVSSASTKGPSVFPLAPCSRSTSESTAALGCLVKDYFPEPVTVSWNSGALTSGVHTFPAVLQSSGLYSLSSVVTVPSSSLGTKTYTCNVDHKPSNTKVDKRVESKYGPPCPPCPAPEAAGGPSVFLFPPKPKDQLMISRTPEVTCVVVDVSQEDPEVQFNWYVDGVEVHNAKTKPREEQFNSTYRVVSVLTVLHQDWLNGKEYKCKVSNKGLPSSIEKTISKAKGQPREPQVYTLPPSQEEMTKNQVSLTCLVKGFYPSDIAVEWESNGQPENNYKTTPPVLDSDGSFFLYSRLTVDKSRWQEGNVFSCSVLHEALHNHYTQKSLSLSLGGGGGSGGGGSAPTSSSTKKTQLQLEHLLLDLQMILNGINNYKNPKLTAMLTAKFYMPKKATELKHLQCLERELKPLEEVLNLAQSKNFHLRPRDLISNINVIVLELKGSETTFMCEYADETATIVEFLNRWITFCQSIISTLT
light: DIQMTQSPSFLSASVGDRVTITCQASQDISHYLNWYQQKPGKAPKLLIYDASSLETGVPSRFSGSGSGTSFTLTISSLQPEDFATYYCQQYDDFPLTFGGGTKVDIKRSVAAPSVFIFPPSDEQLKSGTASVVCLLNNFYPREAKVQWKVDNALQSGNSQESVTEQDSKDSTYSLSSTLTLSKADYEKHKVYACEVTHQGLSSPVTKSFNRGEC
notes: IgG4 anti-CD73 antibody with the IL-2 variant fused to the C-terminus of each heavy chain; expressed in CHO cells, purified as a dimer
In the case of B2, the “IC50, inhibition of membrane-bound CD73 enzyme activity on MDA-MB-231 cells (adenosine assay)” value in assay [1] was 3.37 nM. Also, the Kd with hIL-2Rβ is 2290 nM; with cyCD73 it was 0.113 nM; in the assay with hCD73, 0.0894 nM. Further, the binding result with mCD73 is “no binding”.

B3: GI-108A1 (AHP04167) (Anti-CD73 sdAb-hIgG4 Fc-hIL2v3 fusion protein dimer) (Fc fusion)
chain: EVQLVESGGGLVQAGGSLRLSCVVSGRTFSNYHMGWFRQAPGKEREFVAVIGRSGGPTYYADSVKGRFTISRDNAKNTVYLQMNSLKPEDTAVYYCAGDWRNSDSPSKLKPVYDYWGQGTQVTVSSGGGGSAESKYGPPCPPCPAPEAAGGPSVFLFPPKPKDQLMISRTPEVTCVVVDVSQEDPEVQFNWYVDGVEVHNAKTKPREEQFNSTYRVVSVLTVLHQDWLNGKEYKCKVSNKGLPSSIEKTISKAKGQPREPQVYTLPPSQEEMTKNQVSLTCLVKGFYPSDIAVEWESNGQPENNYKTTPPVLDSDGSFFLYSRLTVDKSRWQEGNVFSCSVLHEALHNHYTQKSLSLSLGGGGGSGGGGSGGGGSAPTSSSTKKTQLQLEHLLLDLQMILNGINNYKNPKLTAMLTAKFYMPKKATELKHLQCLERELKPLEEVLNLAQSKNFHLRPRDLISNINVIVLELKGSETTFMCEYADETATIVEFLNRWITFCQSIISTLT
notes: as for B1
Turning to B3, the “IC50, inhibition of membrane-bound CD73 enzyme activity on MDA-MB-231 cells (adenosine assay)” value in assay [1] was 5.58 nM. For the same molecule, the Kd in the assay with hIL-2Rβ was 2070 nM; in the assay with cyCD73, 0.0708 nM; in the assay with hCD73 it was 0.088 nM; with mCD73, 3.45 nM.

For the origin of these results see patent US20260061032A1 (GI INNOVATION, published 2026).
